T1: EsCas13d, nuclease-dead (Eubacterium siraeum, UniProt B0MS50, R295A;H300A;R849A;H854A)
T1 sequence: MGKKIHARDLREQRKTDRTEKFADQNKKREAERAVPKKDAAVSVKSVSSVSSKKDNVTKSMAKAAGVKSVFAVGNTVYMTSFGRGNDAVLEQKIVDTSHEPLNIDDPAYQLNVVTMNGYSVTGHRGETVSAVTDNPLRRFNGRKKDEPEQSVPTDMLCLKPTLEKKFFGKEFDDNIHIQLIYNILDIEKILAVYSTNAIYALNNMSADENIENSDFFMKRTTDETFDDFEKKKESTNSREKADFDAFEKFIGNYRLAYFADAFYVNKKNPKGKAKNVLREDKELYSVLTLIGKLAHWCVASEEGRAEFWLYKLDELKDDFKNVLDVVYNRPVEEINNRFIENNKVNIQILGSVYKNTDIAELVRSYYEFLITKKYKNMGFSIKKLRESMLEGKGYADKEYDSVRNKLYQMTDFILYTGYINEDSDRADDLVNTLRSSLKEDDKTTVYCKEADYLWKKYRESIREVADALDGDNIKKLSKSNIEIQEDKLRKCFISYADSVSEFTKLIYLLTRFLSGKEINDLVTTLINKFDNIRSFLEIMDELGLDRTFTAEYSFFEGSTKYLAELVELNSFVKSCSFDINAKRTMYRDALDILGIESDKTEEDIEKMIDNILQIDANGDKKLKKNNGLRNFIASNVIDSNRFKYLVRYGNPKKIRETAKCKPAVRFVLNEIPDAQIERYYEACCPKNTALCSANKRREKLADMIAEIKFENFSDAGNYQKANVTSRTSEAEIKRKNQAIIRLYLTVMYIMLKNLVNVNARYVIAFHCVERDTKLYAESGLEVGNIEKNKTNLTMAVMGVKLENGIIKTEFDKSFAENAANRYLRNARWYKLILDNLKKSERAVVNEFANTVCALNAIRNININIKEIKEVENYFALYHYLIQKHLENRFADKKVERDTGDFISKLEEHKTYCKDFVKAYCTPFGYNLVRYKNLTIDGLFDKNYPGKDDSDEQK

B1: target 1 MT 5'PFS ACG 3'PFS UUG (mixed)
RNA 1: CACCCGUGCAAAAAUGCAGGGGUCUAAAACUGAGCGGAUAACCUCUCUAUGG
RNA 2: GGGAAUGGAUCCACAUCUACGAAUUCACGCCAUAGAGAGGUUAUCCGCUCAUUGAGAUCGGAAGAGCACACGU
B2: target 1 MT 5'PFS UCG 3'PFS UGC (mixed)
RNA 1: CACCCGUGCAAAAAUGCAGGGGUCUAAAACUGAGCGGAUAACCUCUCUAUGG
RNA 2: GGGAAUGGAUCCACAUCUACGAAUUCUCGCCAUAGAGAGGUUAUCCGCUCAUGCAGAUCGGAAGAGCACACGU
B3: target 1 MT 5'PFS ACG 3'PFS UUC (mixed)
RNA 1: CACCCGUGCAAAAAUGCAGGGGUCUAAAACUGAGCGGAUAACCUCUCUAUGG
RNA 2: GGGAAUGGAUCCACAUCUACGAAUUCACGCCAUAGAGAGGUUAUCCGCUCAUUCAGAUCGGAAGAGCACACGU
B4: target 1 MT 5'PFS GUG 3'PFS GAC (mixed)
RNA 1: CACCCGUGCAAAAAUGCAGGGGUCUAAAACUGAGCGGAUAACCUCUCUAUGG
RNA 2: GGGAAUGGAUCCACAUCUACGAAUUCGUGCCAUAGAGAGGUUAUCCGCUCAGACAGAUCGGAAGAGCACACGU
B5: target 1 insC 3' of 9,insA 3' of 5 (mixed)
RNA 1: CACCCGUGCAAAAAUGCAGGGGUCUAAAACUGAGCGGAUAACCUCUCUAUGG
RNA 2: GGGAAUGGAUCCACAUCUACGAAUUCGUACCAUAGAGAGGUUACUCCGACUCACCGAGAUCGGAAGAGCACACGU
B6: target 1 MT 5'PFS UAC 3'PFS UCC (mixed)
RNA 1: CACCCGUGCAAAAAUGCAGGGGUCUAAAACUGAGCGGAUAACCUCUCUAUGG
RNA 2: GGGAAUGGAUCCACAUCUACGAAUUCUACCCAUAGAGAGGUUAUCCGCUCAUCCAGAUCGGAAGAGCACACGU
B7: target 1 MT 5'PFS CUG 3'PFS CUA (mixed)
RNA 1: CACCCGUGCAAAAAUGCAGGGGUCUAAAACUGAGCGGAUAACCUCUCUAUGG
RNA 2: GGGAAUGGAUCCACAUCUACGAAUUCCUGCCAUAGAGAGGUUAUCCGCUCACUAAGAUCGGAAGAGCACACGU
B8: target 1 MT 5'PFS AGA 3'PFS UAA (mixed)
RNA 1: CACCCGUGCAAAAAUGCAGGGGUCUAAAACUGAGCGGAUAACCUCUCUAUGG
RNA 2: GGGAAUGGAUCCACAUCUACGAAUUCAGACCAUAGAGAGGUUAUCCGCUCAUAAAGAUCGGAAGAGCACACGU
B9: target 1 MT 5'PFS UAC 3'PFS UCG (mixed)
RNA 1: CACCCGUGCAAAAAUGCAGGGGUCUAAAACUGAGCGGAUAACCUCUCUAUGG
RNA 2: GGGAAUGGAUCCACAUCUACGAAUUCUACCCAUAGAGAGGUUAUCCGCUCAUCGAGAUCGGAAGAGCACACGU
B10: target 1 G17C (mixed)
RNA 1: CACCCGUGCAAAAAUGCAGGGGUCUAAAACUGAGCGGAUAACCUCUCUAUGG
RNA 2: GGGAAUGGAUCCACAUCUACGAAUUCGUACCAUACAGAGGUUAUCCGCUCACCGAGAUCGGAAGAGCACACGU
B11: target 1 MT 5'PFS CUU 3'PFS UAG (mixed)
RNA 1: CACCCGUGCAAAAAUGCAGGGGUCUAAAACUGAGCGGAUAACCUCUCUAUGG
RNA 2: GGGAAUGGAUCCACAUCUACGAAUUCCUUCCAUAGAGAGGUUAUCCGCUCAUAGAGAUCGGAAGAGCACACGU
B12: target 1 MT 5'PFS UGG 3'PFS CAU (mixed)
RNA 1: CACCCGUGCAAAAAUGCAGGGGUCUAAAACUGAGCGGAUAACCUCUCUAUGG
RNA 2: GGGAAUGGAUCCACAUCUACGAAUUCUGGCCAUAGAGAGGUUAUCCGCUCACAUAGAUCGGAAGAGCACACGU
B13: target 1 MT 5'PFS AGA 3'PFS UAG (mixed)
RNA 1: CACCCGUGCAAAAAUGCAGGGGUCUAAAACUGAGCGGAUAACCUCUCUAUGG
RNA 2: GGGAAUGGAUCCACAUCUACGAAUUCAGACCAUAGAGAGGUUAUCCGCUCAUAGAGAUCGGAAGAGCACACGU
B14: target 1 MT 5'PFS CUU 3'PFS UAA (mixed)
RNA 1: CACCCGUGCAAAAAUGCAGGGGUCUAAAACUGAGCGGAUAACCUCUCUAUGG
RNA 2: GGGAAUGGAUCCACAUCUACGAAUUCCUUCCAUAGAGAGGUUAUCCGCUCAUAAAGAUCGGAAGAGCACACGU
B15: target 1 MT 5'PFS AGA 3'PFS UAC (mixed)
RNA 1: CACCCGUGCAAAAAUGCAGGGGUCUAAAACUGAGCGGAUAACCUCUCUAUGG
RNA 2: GGGAAUGGAUCCACAUCUACGAAUUCAGACCAUAGAGAGGUUAUCCGCUCAUACAGAUCGGAAGAGCACACGU
B16: target 1 MT 5'PFS GGG 3'PFS GAG (mixed)
RNA 1: CACCCGUGCAAAAAUGCAGGGGUCUAAAACUGAGCGGAUAACCUCUCUAUGG
RNA 2: GGGAAUGGAUCCACAUCUACGAAUUCGGGCCAUAGAGAGGUUAUCCGCUCAGAGAGAUCGGAAGAGCACACGU
B17: target 1 MT 5'PFS GUG 3'PFS GAG (mixed)
RNA 1: CACCCGUGCAAAAAUGCAGGGGUCUAAAACUGAGCGGAUAACCUCUCUAUGG
RNA 2: GGGAAUGGAUCCACAUCUACGAAUUCGUGCCAUAGAGAGGUUAUCCGCUCAGAGAGAUCGGAAGAGCACACGU
B18: target 1 insC 3' of 14,insC 3' of 9 (mixed)
RNA 1: CACCCGUGCAAAAAUGCAGGGGUCUAAAACUGAGCGGAUAACCUCUCUAUGG
RNA 2: GGGAAUGGAUCCACAUCUACGAAUUCGUACCAUAGAGACGGUUACUCCGCUCACCGAGAUCGGAAGAGCACACGU
B19: target 1 MT 5'PFS CUU 3'PFS UAU (mixed)
RNA 1: CACCCGUGCAAAAAUGCAGGGGUCUAAAACUGAGCGGAUAACCUCUCUAUGG
RNA 2: GGGAAUGGAUCCACAUCUACGAAUUCCUUCCAUAGAGAGGUUAUCCGCUCAUAUAGAUCGGAAGAGCACACGU
B20: target 1 MT 5'PFS GUU 3'PFS AUA (mixed)
RNA 1: CACCCGUGCAAAAAUGCAGGGGUCUAAAACUGAGCGGAUAACCUCUCUAUGG
RNA 2: GGGAAUGGAUCCACAUCUACGAAUUCGUUCCAUAGAGAGGUUAUCCGCUCAAUAAGAUCGGAAGAGCACACGU
B21: target 1 MT 5'PFS GUG 3'PFS GAU (mixed)
RNA 1: CACCCGUGCAAAAAUGCAGGGGUCUAAAACUGAGCGGAUAACCUCUCUAUGG
RNA 2: GGGAAUGGAUCCACAUCUACGAAUUCGUGCCAUAGAGAGGUUAUCCGCUCAGAUAGAUCGGAAGAGCACACGU
B22: target 1 MT 5'PFS GUU 3'PFS AUG (mixed)
RNA 1: CACCCGUGCAAAAAUGCAGGGGUCUAAAACUGAGCGGAUAACCUCUCUAUGG
RNA 2: GGGAAUGGAUCCACAUCUACGAAUUCGUUCCAUAGAGAGGUUAUCCGCUCAAUGAGAUCGGAAGAGCACACGU
B23: target 1 MT 5'PFS ACG 3'PFS UUA (mixed)
RNA 1: CACCCGUGCAAAAAUGCAGGGGUCUAAAACUGAGCGGAUAACCUCUCUAUGG
RNA 2: GGGAAUGGAUCCACAUCUACGAAUUCACGCCAUAGAGAGGUUAUCCGCUCAUUAAGAUCGGAAGAGCACACGU
B24: target 1 MT 5'PFS UUG 3'PFS CGG (mixed)
RNA 1: CACCCGUGCAAAAAUGCAGGGGUCUAAAACUGAGCGGAUAACCUCUCUAUGG
RNA 2: GGGAAUGGAUCCACAUCUACGAAUUCUUGCCAUAGAGAGGUUAUCCGCUCACGGAGAUCGGAAGAGCACACGU
B25: target 1 MT 5'PFS GUG 3'PFS GAA (mixed)
RNA 1: CACCCGUGCAAAAAUGCAGGGGUCUAAAACUGAGCGGAUAACCUCUCUAUGG
RNA 2: GGGAAUGGAUCCACAUCUACGAAUUCGUGCCAUAGAGAGGUUAUCCGCUCAGAAAGAUCGGAAGAGCACACGU
B26: target 1 G5U,A14G (mixed)
RNA 1: CACCCGUGCAAAAAUGCAGGGGUCUAAAACUGAGCGGAUAACCUCUCUAUGG
RNA 2: GGGAAUGGAUCCACAUCUACGAAUUCGUACCAUAGAGGGGUUAUCCUCUCACCGAGAUCGGAAGAGCACACGU
B27: target 1 MT 5'PFS UUG 3'PFS CGA (mixed)
RNA 1: CACCCGUGCAAAAAUGCAGGGGUCUAAAACUGAGCGGAUAACCUCUCUAUGG
RNA 2: GGGAAUGGAUCCACAUCUACGAAUUCUUGCCAUAGAGAGGUUAUCCGCUCACGAAGAUCGGAAGAGCACACGU
B28: target 1 MT 5'PFS CUG 3'PFS CUC (mixed)
RNA 1: CACCCGUGCAAAAAUGCAGGGGUCUAAAACUGAGCGGAUAACCUCUCUAUGG
RNA 2: GGGAAUGGAUCCACAUCUACGAAUUCCUGCCAUAGAGAGGUUAUCCGCUCACUCAGAUCGGAAGAGCACACGU

The binders below were run against T1, EsCas13d, nuclease-dead (assay: crRNA (strand 1, pre-loaded); Mg2+; 40 mM Tris-HCl pH 7.5, 150 mM NaCl, 6 mM MgCl2, 1 mM DTT, 0.1% Tween-20, 0.2 mg/ml BSA; 25 C; 10 min per concentration, then washed). Conditions: tags: His6-TwinStrep-SUMO cleaved; N-terminal SNAP kept (SNAP-Surface 488); label: 3' end held by stalled T7 RNA polymerase.

Q: Which Kd does the source give for B1 here?
A: Its Kd is 7.45 ± 1 nM.

Q: B2 was tested. Which Kd did it give?
A: Its Kd is about 50 nM.

Q: B3 was tested. Which Kd did it give?
A: The Kd was 19.5 ± 8 nM.

Q: How did the Kd turn out when B4 was run?
A: Its Kd is 17.2 ± 2.9 nM.

Q: B5 was tested. Which Kd did it give?
A: The Kd was 5.89 ± 0.35 nM.

Q: B6 was tested. Which Kd did it give?
A: The Kd was 12.5 ± 5 nM.

Q: With B7 as the binder, how does the Kd read?
A: The Kd was 5.8 ± 1.9 nM.

Q: With B8 as the binder, how does the Kd read?
A: Its Kd is 45 ± 20 nM.

Q: With B9 as the binder, how does the Kd read?
A: Its Kd is 21.3 ± 8.05 nM.

Q: For B10, which Kd is on record?
A: Its Kd is 40 ± 8 nM.

Q: With B11 as the binder, how does the Kd read?
A: Its Kd is about 90 nM.

Q: Which Kd does the source give for B12 here?
A: The Kd was 80 ± 32 nM.

Q: Which Kd does the source give for B13 here?
A: The Kd was 35.5 ± 14 nM.

Q: For B14, which Kd is on record?
A: Its Kd is 35 ± 11.5 nM.

Q: How did the Kd turn out when B15 was run?
A: Its Kd is 40 ± 17 nM.

Q: With B16 as the binder, how does the Kd read?
A: The Kd was 20.5 ± 5.5 nM.

Q: B17 was tested. Which Kd did it give?
A: Its Kd is 18.8 ± 2.25 nM.

Q: Which Kd does the source give for B18 here?
A: The Kd was 42 ± 11 nM.

Q: For B19, which Kd is on record?
A: Its Kd is 56 ± 24 nM.

Q: With B20 as the binder, how does the Kd read?
A: The Kd was 22 ± 5.5 nM.

Q: B21 was tested. Which Kd did it give?
A: The Kd was 15.4 ± 1.95 nM.

Q: With B22 as the binder, how does the Kd read?
A: Its Kd is 56 ± 9 nM.

Q: How did the Kd turn out when B23 was run?
A: Its Kd is 6.9 ± 1.3 nM.

Q: Which Kd does the source give for B24 here?
A: Its Kd is about 97 nM.

Q: For B25, which Kd is on record?
A: The Kd was 12.9 ± 1.4 nM.

Q: How did the Kd turn out when B26 was run?
A: Its Kd is 68 ± 7 nM.

Q: B27 was tested. Which Kd did it give?
A: The Kd was 47.5 ± 23.5 nM.

Q: Which Kd does the source give for B28 here?
A: Its Kd is 4.15 ± 1.5 nM.

Source: paper PMC10786891, “Massively parallel profiling of RNA-targeting CRISPR-Cas13d”
